Measurements as given in the RNAGym collection of RNA variant scans (doi:10.1093/molbev/msab373).

B1: Azoarcus group I ribozyme (parent)
chain: GUGCCUUGCGCCGGGAAACCACGCAAGGGAUGGUGUCAAAUUCGGCGAAACCUAAGCGCCCGCCCGGGCGUAUGGCAACGCCGAGCCAAGCUUCGGCGCCUGCGCCGAUGAAGGUGUAGAGACUAGACGGCACCCACCUAAGGCAAACGCUAUGGUGAAGGCAUAGUCCAGGGAGUGGCGAAAGUCACACAAACCGG

Variants of: B1
Test: reverse-splicing fitness (ratio to wild type); higher = more active; in vitro selection; Mg2+ level not given
Summary of the method: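 An in vitro group I ribozyme library with randomized positions was T7-transcribed and gel-purified. In triplicate, 10 pmol RNA in EPPS pH 7.5 was reacted with 50 pmoles of a 30-nt RNA substrate for 1 h at 37 °C across several added MgCl2 levels (1–48 mM), then stopped with EDTA. Products were reverse transcribed from a substrate-complementary primer, PCR-amplified and sequenced (HiSeq 4000). Fitness is a variant's read proportion after selection over that before, normalised to wild type.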

| Variant | reverse-splicing fitness |
| --- | --- |
| C82G A111C A120C A145C C169G U176G | 0.0061 |
| C82G A111C A120C A145U C150A U176A | 0.0102 |
| C82G A111C A120C A145U C150A U176G | 0.00601 |
| C82G A111C A120C A145U C150A U176C | 0.0153 |
| C82G A111C A120C U176C | 0.0268 |
| C82G A111C A120C U176G | 0.00944 |
| C82G A111C A120C U176A | 0.018 |
| C82A C169U | 0.0153 |
| C82A C169A | 0.00967 |
| C82A C169G | 0.00961 |
| C82G A111C A120C A145U C150A C169A U176G | 0.00868 |
| C82G A111C A120C A145U C150A C169A U176C | 0.0129 |
| C82G A111C A120C A145U C150A C169A U176A | 0.0163 |
| C82A C150G C169G U176G | 0.00581 |
| C82A C150G C169G U176A | 0.00711 |
| C82A C150G C169G U176C | 0.00553 |
| C82G A111C A120C A145C C150U C169U U176A | 0.0131 |
| C82G A111C A120C A145C C150U C169U U176G | 0.0064 |
| C82G A111C A120C A145C C150U C169U U176C | 0.0133 |
| C82G A111C A120C C150A C169U U176C | 0.0153 |
| C82G A111C A120C C150A C169U U176G | 0.0085 |

| Variant | reverse-splicing fitness |
| --- | --- |
| C82G A111C A120C C150A C169U U176A | 0.015 |
| C82G A111C A120C C150U C169A U176G | 0.00909 |
| C82G A111C A120C C150U C169A U176C | 0.0129 |
| C82G A111C A120C C150U C169A U176A | 0.0126 |
| C82G A111C A120C A145G C150U C169G U176C | 0.0162 |
| C82G A111C A120C A145G C150U C169G U176A | 0.0122 |
| C82G A111C A120C A145G C150U C169G U176G | 0.00699 |
| C82G A111C A120C C169G U176C | 0.0206 |
| C82G A111C A120C C169G U176A | 0.0161 |
| C82G A111C A120C C169G U176G | 0.00714 |
| C82G A111C A120C A145U C169G U176A | 0.0141 |
| C82G A111C A120C A145U C169G U176G | 0.00713 |
| C82G A111C A120C A145U C169G U176C | 0.0177 |
| C82G A111C A120C A145C U176G | 0.00711 |
| C82G A111C A120C A145C U176C | 0.0241 |
| C82G A111C A120C A145C U176A | 0.0166 |
| C82A C169G U176C | 0.0234 |
| C82A C169G U176A | 0.0139 |
| C82A C169G U176G | 0.00442 |
| C82G A111C A120C A145U C150A C169U U176A | 0.0126 |
| C82G A111C A120C A145U C150A C169U U176C | 0.0133 |

| Variant | reverse-splicing fitness |
| --- | --- |
| C82G A111C A120C A145U C150A C169U U176G | 0.00817 |
| C82G A111C A120C C169U | 0.0148 |
| C82G A111C A120C C169A | 0.00716 |
| C82G A111C A120C C169G | 0.00886 |
| C82G A111C A120C C169U U176C | 0.0163 |
| C82G A111C A120C C169U U176G | 0.00655 |
| C82G A111C A120C C169U U176A | 0.0183 |
| C82G A111C A120C C150A | 0.0114 |
| C82G A111C A120C C150U | 0.0277 |
| C82G A111C A120C C150G | 0.00951 |
| C82G A111C A120C C150A C169G | 0.00905 |
| C82G A111C A120C C150A C169A | 0.0108 |
| C82G A111C A120C C150A C169U | 0.0123 |
| C82G A111C A120C A145G C150G C169G U176A | 0.0118 |
| C82G A111C A120C A145G C150G C169G U176G | 0.0062 |
| C82G A111C A120C A145G C150G C169G U176C | 0.0138 |
| C82G A111C A120C A145C C150A C169U | 0.0113 |
| C82G A111C A120C A145C C150A C169G | 0.00859 |
| C82G A111C A120C A145C C150A C169A | 0.00796 |
| C82A C150G | 0.0487 |
| C82A C150A | 0.0666 |

| Variant | reverse-splicing fitness |
| --- | --- |
| C82A C150U | 0.367 |
| C82A A145U C169G U176A | 0.0105 |
| C82A A145U C169G U176G | 0.00461 |
| C82A A145U C169G U176C | 0.0127 |
| C82G A111C A120C C150G U176A | 0.00574 |
| C82G A111C A120C C150G U176C | 0.00847 |
| C82G A111C A120C C150G U176G | 0.00427 |
| C82A C150A C169U U176G | 0.00672 |
| C82A C150A C169U U176C | 0.0166 |
| C82A C150A C169U U176A | 0.0152 |
| C82G A111C A120C A145G C150U C169U U176A | 0.0156 |
| C82G A111C A120C A145G C150U C169U U176C | 0.0131 |
| C82G A111C A120C A145G C150U C169U U176G | 0.00732 |
| C82A C150U C169G | 0.0106 |
| C82A C150U C169U | 0.0139 |
| C82A C150U C169A | 0.0105 |
| C82G A111C A120C A145U C150U C169A U176C | 0.0124 |
| C82G A111C A120C A145U C150U C169A U176A | 0.0138 |
| C82G A111C A120C A145U C150U C169A U176G | 0.00748 |
| C82A A145U C169G | 0.00976 |
| C82A A145U C169U | 0.0136 |
